Experimental findings from publication PMC10192418 (2023) are described below.

The chains are these.
B1: linear peptide 3 [modified: 5(6)-carboxyfluorescein on the N-terminus; 5(6)-carboxyfluorescein on the N-terminus] / B-RCAL (BÜHLMANN recombinant calprotectin; His6-linker-S100A9-linker-S100A8) [human] (parent complex)
chain 1: RSPESVAFPMFQSHWYSG
chain 2: MTCKMSQLERNIETIINTFHQYSVKLGHPDTLNQGEFKELVRKDLQNFLKKENKNEKVIEHIMEDLDTNADKQLSFEEFIMLMARLTWASHEKMHEGDEGPGHHHKPGLGEGTPLEVLFQGPMLTELEKALNSIIDVYHKYSLIKGNFHAVYRDDLKKLLETECPQYIRKKGADVWFKELDINTDGAVNFQEFLILVIKMGVAAHKKSHEESHKE

The variants in the experiment derive from B1. The experiment is described as follows: SPR; peptide injected at 500 nM; single measurement; calprotectin immobilized; read off a plot.
Take chain 1 RSPASVAFPMFQSHWYSG [chain 1 E4A]: the response is roughly 130 RU.
